Reference: patent US7264954B2, “Lipoxygenase” (Novozymes A/S, priority 2001, dated 2007)

Legend:
M. salvinii lipoxygenase = M. salvinii lipoxygenase (Nakataea oryzae, UniProt P0CT92); conditions: per substrate
soybean lipoxygenase = biological target: T1, soybean lipoxygenase (Glycine max, UniProt P08170); experiment: Substrate kinetic parameters with soybean lipoxygenase (comparison); assay type: biochemical
T1 sequence (P08170 1-839): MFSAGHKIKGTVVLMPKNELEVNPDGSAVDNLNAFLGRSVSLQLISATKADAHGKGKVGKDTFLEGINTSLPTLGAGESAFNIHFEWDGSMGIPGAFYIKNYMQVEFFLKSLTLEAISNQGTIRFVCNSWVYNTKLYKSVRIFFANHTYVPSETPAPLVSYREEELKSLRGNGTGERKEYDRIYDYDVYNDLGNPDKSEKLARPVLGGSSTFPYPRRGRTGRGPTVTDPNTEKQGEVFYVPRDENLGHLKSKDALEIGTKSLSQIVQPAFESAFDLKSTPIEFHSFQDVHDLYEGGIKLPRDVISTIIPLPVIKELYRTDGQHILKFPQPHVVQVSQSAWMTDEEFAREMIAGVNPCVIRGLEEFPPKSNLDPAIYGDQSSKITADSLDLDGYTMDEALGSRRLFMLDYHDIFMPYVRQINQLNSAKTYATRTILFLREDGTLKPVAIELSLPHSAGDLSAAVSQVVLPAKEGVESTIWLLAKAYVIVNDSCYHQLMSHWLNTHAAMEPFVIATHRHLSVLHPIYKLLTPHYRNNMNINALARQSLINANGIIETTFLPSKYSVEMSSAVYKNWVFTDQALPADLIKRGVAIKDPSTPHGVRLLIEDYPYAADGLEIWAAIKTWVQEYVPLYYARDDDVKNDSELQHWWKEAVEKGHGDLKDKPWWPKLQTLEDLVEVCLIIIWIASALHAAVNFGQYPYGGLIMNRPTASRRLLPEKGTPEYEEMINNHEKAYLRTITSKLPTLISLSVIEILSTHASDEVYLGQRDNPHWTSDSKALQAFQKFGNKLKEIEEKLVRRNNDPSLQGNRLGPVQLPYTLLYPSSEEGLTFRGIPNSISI
Protocol: Soybean lipoxygenase (type I-B) (cat.# L7315) and astaxanthin (cat.# A-9335) was supplied by Sigma. b-carotene (cat.# 031-05533) were supplied by Wako. For comparison, one substrate was also tested with soybean lipoxygenase.

[1] = test system: CCCCC/C=C\C/C=C\C/C=C\C/C=C\CCCC(=O)O; experiment: purified protein, by the assay type
[2] = test system: CCCCC/C=C\C/C=C\CCCCCCCC(=O)Cl; experiment: purified protein, by the assay type
[3] = test system: CCCCC/C=C\C/C=C\CCCCCCCC(=O)OC; experiment: purified protein, by the assay type
[4] = test system: CCCCC/C=C\C/C=C\CCCCCCCCOC(C)=O; experiment: purified protein, by the assay type
[5] = test system: CCCCC/C=C\C/C=C\CCCCCCCCO; experiment: purified protein, by the assay type
[6] = Bleaching assay, β-carotene pigment solution; assay type: biochemical
Protocol: (§1) Bleaching effect by lipoxygenase was examined spectrophotometrically at 25° C. by following the absorbance at 470 nm. The pigment solution was prepared as follows. 150 ul of stock pigment solution (1 mg each pigment in 1 ml chloroform) was evaporated to be dry. Then 30 ml of the buffer (50 mM KH2PO4NaHPO4, pH 7.0) with 0.3% of Tween 20 was added slowly and the pigment was dissolved.
(§2) The bleaching effect of M. salvinii LOX was examined. Soybean L1 was included for comparison. β-carotene and astaxanthin were used as pigments.

[7] = Bleaching assay, astaxanthin pigment solution; assay type: biochemical
Protocol: as §1, §2

Chain of M. salvinii lipoxygenase (P0CT92 18-617): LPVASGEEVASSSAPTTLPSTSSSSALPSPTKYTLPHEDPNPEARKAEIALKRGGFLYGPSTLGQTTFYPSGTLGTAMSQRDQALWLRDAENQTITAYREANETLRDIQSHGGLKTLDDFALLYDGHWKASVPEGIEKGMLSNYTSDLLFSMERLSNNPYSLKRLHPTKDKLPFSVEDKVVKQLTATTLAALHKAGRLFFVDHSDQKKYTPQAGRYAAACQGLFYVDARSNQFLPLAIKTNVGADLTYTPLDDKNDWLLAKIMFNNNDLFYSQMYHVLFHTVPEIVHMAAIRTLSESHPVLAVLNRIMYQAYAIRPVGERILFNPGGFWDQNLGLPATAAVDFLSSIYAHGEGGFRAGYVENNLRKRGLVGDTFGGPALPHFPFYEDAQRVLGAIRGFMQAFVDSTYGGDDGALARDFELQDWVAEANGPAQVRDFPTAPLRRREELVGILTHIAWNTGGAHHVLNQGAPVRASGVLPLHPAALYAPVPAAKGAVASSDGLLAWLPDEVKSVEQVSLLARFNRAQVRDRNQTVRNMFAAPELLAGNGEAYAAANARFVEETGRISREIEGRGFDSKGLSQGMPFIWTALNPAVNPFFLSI

Molecule: CC/C=C\C/C=C\C/C=C\CCCCCCCC(=O)O [Linolenic acid]
- Km (M. salvinii lipoxygenase): 400 nM

Molecule: CCCCC/C=C/C/C=C/CCCCCCCC(=O)O [Linoelaidic acid]
- KM (M. salvinii lipoxygenase): No activity
- Vmax (M. salvinii lipoxygenase): No activity
- Vmax/KM (M. salvinii lipoxygenase): No activity

Molecule: CCCCC/C=C\C/C=C\CCCCCCCC(=O)O [Linoleic acid]
- Km (soybean lipoxygenase): 230 µM
- Vmax (soybean lipoxygenase): 12.3 µmol/min/mg
- Km (M. salvinii lipoxygenase): 1000 nM
- Vmax (M. salvinii lipoxygenase): 2.63 µmol/min/mg

Molecule: M. salvinii lipoxygenase (Nakataea oryzae)
- Km [1]: 5.5 µM
- Vmax [1]: 2.44 µmol/min/mg
- Vmax/Km [1]: 446000 µL/min/mg
- Km [2]: 12 µM
- Vmax [2]: 0.97 µmol/min/mg
- Vmax/Km [2]: 80000 µL/min/mg
- Km [3]: 30 µM
- Vmax [3]: 0.82 µmol/min/mg
- Vmax/Km [3]: 26000 µL/min/mg
- Km [4]: 9 µM
- Vmax [4]: 0.77 µmol/min/mg
- Vmax/Km [4]: 85000 µL/min/mg
- Km [5]: 8 µM
- Vmax [5]: 1.4 µmol/min/mg
- Vmax/Km [5]: 175000 µL/min/mg

Molecule: CCCCC/C=C\C/C=C\CCCCCCCC(=O)O [Na linoleate]
- Km (M. salvinii lipoxygenase): 410 nM
- Vmax (M. salvinii lipoxygenase): 2.07 µmol/min/mg

B1: Soybean L1: Soybean lipoxygenase (type I-B) (cat.# L7315) supplied by Sigma, included for comparison (protein, UniProt P08170 1-839, looked up)
Seed linoleate …: MFSAGHKIKGTVVLMPKNELEVNPDGSAVDNLNAFLGRSVSLQLISATKADAHGKGKVGKDTFLEGINTSLPTLGAGESAFNIHFEWDGSMGIPGAFYIKNYMQVEFFLKSLTLEAISNQGTIRFVCNSWVYNTKLYKSVRIFFANHTYVPSETPAPLVSYREEELKSLRGNGTGERKEYDRIYDYDVYNDLGNPDKSEKLARPVLGGSSTFPYPRRGRTGRGPTVTDPNTEKQGEVFYVPRDENLGHLKSKDALEIGTKSLSQIVQPAFESAFDLKSTPIEFHSFQDVHDLYEGGIKLPRDVISTIIPLPVIKELYRTDGQHILKFPQPHVVQVSQSAWMTDEEFAREMIAGVNPCVIRGLEEFPPKSNLDPAIYGDQSSKITADSLDLDGYTMDEALGSRRLFMLDYHDIFMPYVRQINQLNSAKTYATRTILFLREDGTLKPVAIELSLPHSAGDLSAAVSQVVLPAKEGVESTIWLLAKAYVIVNDSCYHQLMSHWLNTHAAMEPFVIATHRHLSVLHPIYKLLTPHYRNNMNINALARQSLINANGIIETTFLPSKYSVEMSSAVYKNWVFTDQALPADLIKRGVAIKDPSTPHGVRLLIEDYPYAADGLEIWAAIKTWVQEYVPLYYARDDDVKNDSELQHWWKEAVEKGHGDLKDKPWWPKLQTLEDLVEVCLIIIWIASALHAAVNFGQYPYGGLIMNRPTASRRLLPEKGTPEYEEMINNHEKAYLRTITSKLPTLISLSVIEILSTHASDEVYLGQRDNPHWTSDSKALQAFQKFGNKLKEIEEKLVRRNNDPSLQGNRLGPVQLPYTLLYPSSEEGLTFRGIPNSISI
- ΔA470/min ([6]; β-carotene): 0.00005
- bleaching effect (in words) ([6]; β-carotene and astaxanthin pigment solutions): little effect on bleaching
- LOX activity ([6]; β-carotene experiment): 1.962
- absorbance at 470 nm ([6]; β-carotene, time 0 min, 25° C., pH 7.0): 0.3575
- absorbance at 470 nm ([6]; β-carotene, time 0.4 min): 0.3616
- absorbance at 470 nm ([6]; β-carotene, time 0.8 min): 0.3601
- absorbance at 470 nm ([6]; β-carotene, time 1.2 min): 0.362
- absorbance at 470 nm ([6]; β-carotene, time 1.4 min): 0.3602
- absorbance at 470 nm ([6]; β-carotene, time 1.8 min): 0.3602
- absorbance at 470 nm ([6]; β-carotene, time 2.2 min): 0.3595
- absorbance at 470 nm ([6]; β-carotene, time 2.6 min): 0.3595
- absorbance at 470 nm ([6]; β-carotene, time 3 min): 0.3594
- ΔA470/min ([7]; Astaxanthin): 0.0021
- LOX activity ([7]; Astaxanthin experiment): 2.018
- absorbance at 470 nm ([7]; Astaxanthin, time 0 min, 25° C., pH 7.0): 0.5026
- absorbance at 470 nm ([7]; Astaxanthin, time 0.4 min): 0.5029
- absorbance at 470 nm ([7]; Astaxanthin, time 0.8 min): 0.505
- absorbance at 470 nm ([7]; Astaxanthin, time 1 min): 0.5025
- absorbance at 470 nm ([7]; Astaxanthin, time 1.4 min): 0.5013
- absorbance at 470 nm ([7]; Astaxanthin, time 1.8 min): 0.4993
- absorbance at 470 nm ([7]; Astaxanthin, time 2.2 min): 0.4985
- absorbance at 470 nm ([7]; Astaxanthin, time 2.6 min): 0.4986
- absorbance at 470 nm ([7]; Astaxanthin, time 3 min): 0.498
